# Experimental data reported in the supplement of paper PMC10126150.
# ± gives the standard deviation of the averaged measurements.
# System: ATP
# Experiment: switch fluorescence ratio, 500 uM ATP over buffer (Cy3 cluster intensity, sum of 5 cycles each) (fold (ratio)); higher = stronger signal-on switching upon ATP binding; sequences stand for … in TCGTCGGCAGCGTCAGATGTGTATAAGAGACAGTTTTTTTTTTTTTTTTTTTTTTTTT…TC
# Conditions: aptamer strand: ATP DNA aptamer (quencher-CACCTGGGGGAGTATTGCGGAGGAAGG + anchor), 100 nM annealed; ATP concentration: 500 uM
# How it was run: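 Imaging in selection buffer was followed by imaging after 15 min with 500 uM ATP at 22 °C, for Cy3-labelled switching-strand clusters annealed to 100 nM quencher-labelled ATP aptamer on a modified Illumina MiSeq flow-cell. Five of these buffer/ATP cycles ran, separated by NaOH stripping and re-annealing. The fluorescence ratio per cluster is summed target-cycle over summed buffer-cycle Cy3 intensity, averaged per switch-domain sequence; clusters outside 100-1000 RFU were removed.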
# 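Note: ATP exposure 15 min at 22 °C before imaging.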
row,Sequence,switch fluorescence ratio
1,AGAGTACGGC,1.09 ± 0.017
2,CTTCGGAGGT,1.028 ± 0.0037
3,GTCTCAAGGG,0.981 ± 0.039
4,CGGCGCCTGT,1.01 ± 0.05
5,GCTGAATTGG,1.04 ± 0.053
6,CAGATTTTTA,1.01 ± 0.029
7,TGAGGGCGAT,1.033 ± 0.0019
8,TATTCTCATC,1.013 ± 0.0027
9,TCCGTTTTTT,1.04 ± 0.063
10,GAGTAGAGTG,0.957 ± 0.026
11,AAATGAACCG,1.06 ± 0.013
12,TAAGTATGTC,0.995 ± 0.01
13,TACGTGGGTG,1.05 ± 0.02
14,TATGGGATGT,0.988 ± 0.016
15,GAAGGGAAGA,0.96 ± 0.012
16,TCAGTAGGCA,1.01 ± 0.011
17,GGATTACTCT,1.0308 ± 0.00015
18,AAATTCAATG,0.995 ± 0.013
19,ATAGATTAGT,0.996 ± 0.035
20,AGCAGGGTTG,1.029 ± 0.01
21,CAGTGTGGTG,1 ± 0.049
22,CCTGGGGCTA,1.25 ± 0.021
23,GCATGGAAGA,0.992 ± 0.015

row,Sequence,switch fluorescence ratio
1,AGCAATCGGT,1.6 ± 0.42
2,GAGTATGAAG,1.01 ± 0.031
3,GGTATAGGCT,0.996 ± 0.014
4,ATTATATTCT,1 ± 0.038
5,CTGGGTGTTC,1.05 ± 0.035
6,GGGATCGTAC,1.07 ± 0.041
7,TTTATTCTTA,0.9807 ± 0.0081
8,CTTTTTCTTT,1.01 ± 0.057
9,TTAAAAAAAT,1.73 ± 1.4
10,TTACTCCTTT,1 ± 0.017
11,AATAGATATG,1.01 ± 0.0018
12,TTGAGCTAGG,1.01 ± 0.023
13,GTGTTTAAAA,0.995 ± 0.013
14,ATGATTTGGT,0.983 ± 0.026
15,AGGATGAGGT,0.978 ± 0.057
16,TTTTATGTG,1.01 ± 0.021
17,GGGATTTACG,1.02 ± 0.019
18,CAGTTGGGGT,0.997 ± 0.022
19,GGGTTATACG,1.04 ± 0.031
20,AAGTTGCTAG,0.9976 ± 0.0048
21,GATGGCAGCG,1.05 ± 0.045
22,TTTGTTTTAG,0.983 ± 0.031
23,TGGGCAGGAC,1.41 ± 0.49

row,Sequence,switch fluorescence ratio
1,AACGATGTAA,0.9951 ± 0.0059
2,CGGCAGGTAA,1.05 ± 0.03
3,TTATGTTTAA,0.999 ± 0.025
4,CCTAATGCAG,1.11 ± 0.049
5,GAGGTACTTG,0.975 ± 0.039
6,TCTATTGGTT,0.966 ± 0.021
7,ATGTATAGGC,0.962 ± 0.06
8,AGGCGGGCAG,1.039 ± 0.004
9,ATTATTAGAA,0.9912 ± 0.0034
10,ATGAAAGCAC,1.09 ± 0.061
11,TCCTGTGCTG,1.09 ± 0.043
12,CGCAATTGTT,2.49 ± 0.55
13,TAAAGGTTAC,1.03 ± 0.028
14,TAAGGGAACC,1.01 ± 0.044
15,AACTTATGTC,0.9738 ± 0.0069
16,AGAGCGGGCT,1.04 ± 0.036
17,GATGCGGCTA,1.02 ± 0.018
18,AATTGG,0.992 ± 0.018
19,TTCATCAGCG,1.05 ± 0.083
20,GAGATGGTAG,0.976 ± 0.0069
21,TTTTGTTACC,1.02 ± 0.018
22,GTAGGGCGTA,0.9635 ± 0.0073
23,AGAGAGCAAG,1.07 ± 0.043

row,Sequence,switch fluorescence ratio
1,TAGTGGCCTG,0.955 ± 0.023
2,GCGGCCCGAG,0.962 ± 0.022
3,TGGGAGAAAT,2.39 ± 2.4
4,CCCGTATACT,3.22 ± 1.6
5,AATATTTAAC,0.9828 ± 0.0024
6,CCGTGATATG,2.492 ± 0.0084
7,AACGGTACGG,1.03 ± 0.045
8,CCTACCCTCC,3.05 ± 0.22
9,GGCGGGAGGG,0.986 ± 0.029
10,GCAGCCGAGT,1.013 ± 0.0098
11,TAAGGTCCGA,1.021 ± 0.0077
12,TTTTAAATAG,1.01 ± 0.024
13,TTGCTGGCCG,1.03 ± 0.026
14,CGGATGGAGG,0.988 ± 0.042
15,TTCACGAGTG,0.988 ± 0.052
16,GGACAGAGTT,0.9801 ± 0.0013
17,TACGGGAGGG,1.07 ± 0.022
18,TAGTCGAGAC,1.01 ± 0.018
19,GACTGGGGAT,0.995 ± 0.025
20,CGTCATGATG,1 ± 0.029
21,GGACGTGTTG,0.983 ± 0.033
22,TTGGGGATAT,0.998 ± 0.039
23,TGACGCGGGG,1.054 ± 0.0086

row,Sequence,switch fluorescence ratio
1,TTAGGGTG,0.992 ± 0.03
2,GGGATAGTTT,1 ± 0.063
3,GCGAAAAAGC,0.978 ± 0.046
4,CAGGGGTATC,1.01 ± 0.033
5,GGTATTACGT,0.972 ± 0.032
6,CCAGGAATAA,1.11 ± 0.14
7,TTACTCTATA,1.06 ± 0.016
8,TAGTATGGGT,0.9692 ± 0.0077
9,GGTACTGGGA,0.997 ± 0.0025
10,TCGGCAATGT,2.32 ± 1.6
11,CGATTCGCAG,1.25 ± 0.096
12,GGATTTGGTT,1.04 ± 0.036
13,CATGAGGTCG,0.989 ± 0.047
14,TATGTTTCTA,1.0004 ± 0.00054
15,TTGAAGGTGC,1.69 ± 0.43
16,GCGACCATCC,1.8 ± 0.08
17,AAATGGGTTC,0.9874 ± 0.0083
18,AACCTGCGGA,1.02 ± 0.011
19,TTACGGTGCC,0.987 ± 0.03
20,GATGGAGTTC,0.983 ± 0.029
21,TTACTCGACG,1.06 ± 0.022
22,TGGATTTGGT,0.988 ± 0.012
23,TGAAATTTAT,1.01 ± 0.032

row,Sequence,switch fluorescence ratio
1,TCATGAGATT,1.02 ± 0.021
2,CGGTCCACGA,1.022 ± 0.0017
3,ACATTAGTGG,1.01 ± 0.01
4,GGGGGCGGAC,0.974 ± 0.097
5,GACATGGCGG,1.01 ± 0.024
6,GGCCCTGCAG,1.02 ± 0.042
7,ATGGTAAGGG,0.991 ± 0.026
8,TTTTTTTGCA,1 ± 0.024
9,GTTTAGGTTT,1 ± 0.019
10,TGATCATATG,0.982 ± 0.068
11,TTAATTTGAG,0.986 ± 0.03
12,TCACTGGTTG,1.01 ± 0.011
13,AACAGGCGAT,0.985 ± 0.034
14,TTTAGTACGC,1.05 ± 0.0076
15,TGGAAAAAG,0.989 ± 0.053
16,AAGTCAGTTG,1.02 ± 0.059
17,TTCGTGGGGA,0.995 ± 0.025
18,ACGTTTTCGG,0.9837 ± 0.0052
19,TTTTTGACC,1.008 ± 0.0017
20,GGGGTAACAG,1.01 ± 0.044
21,TGAAAAATGT,0.984 ± 0.016
22,ACGCAGTTCT,1.061 ± 0.008
23,CCTCGGGGGT,1.02 ± 0.04

row,Sequence,switch fluorescence ratio
1,CGGGCTGGGT,0.987 ± 0.057
2,GACGCTCAGC,1.39 ± 0.019
3,TGGATATGGT,1.01 ± 0.013
4,AGTTTGACCT,1.15 ± 0.032
5,TTCGCGGGTT,0.97 ± 0.01
6,CTGTGGATGC,1.089 ± 0.0038
7,ACAGCATGGA,1.04 ± 0.048
8,CGGGGCAGCT,1.1 ± 0.11
9,GAAGGGCTAG,0.9985 ± 0.0061
10,CAAGGACGTT,0.997 ± 0.02
11,AACGCACGTT,1.28 ± 0.02
12,GTTGGCACTG,1.036 ± 0.0053
13,GGCGGTAGTG,0.999 ± 0.025
14,AAGTTGGGG,0.99 ± 0.039
15,TTGCGAAATC,1.44 ± 0.58
16,CTCGGGGGGG,0.998 ± 0.028
17,ATTATTCAGT,0.997 ± 0.018
18,CGGGCTTCGA,0.993 ± 0.013
19,CAGGGGGGTT,1.09 ± 0.21
